Where no end group is shown, it is not given here. Side-chain parts run from the residue outwards. [ ]: non-standard residue; d: D form. maleimide = maleimide end of mPEG-20 kDa maleimide, which attaches the 20 kDa PEG to the Cys thiol; 1Nal = N[C@@H](Cc1cccc2ccccc12)C(=O)O; Aib = CC(C)(N)C(=O)O
T1: human glucose-dependent insulinotropic polypeptide receptor (hGIP-R) (human, UniProt P48546 22-466)
T1 sequence (looked up): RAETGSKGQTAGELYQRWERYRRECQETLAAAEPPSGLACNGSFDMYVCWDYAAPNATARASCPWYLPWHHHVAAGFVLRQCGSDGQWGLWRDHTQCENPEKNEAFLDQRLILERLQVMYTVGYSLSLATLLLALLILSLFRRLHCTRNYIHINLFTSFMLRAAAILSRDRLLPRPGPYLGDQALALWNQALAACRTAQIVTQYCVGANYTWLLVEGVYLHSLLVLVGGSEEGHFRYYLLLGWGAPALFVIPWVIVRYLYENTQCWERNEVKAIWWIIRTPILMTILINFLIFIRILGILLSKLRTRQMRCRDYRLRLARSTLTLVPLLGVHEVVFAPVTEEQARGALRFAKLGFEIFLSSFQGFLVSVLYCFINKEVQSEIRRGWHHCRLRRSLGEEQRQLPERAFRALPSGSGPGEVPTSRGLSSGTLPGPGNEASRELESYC


molecular target: T1, human glucose-dependent insulinotropic …; experiment: cell-based or functional assay

Binder | EC50 (relative), intracellular cAMP in hGIP-R-CHO-S cells, HTRF
Y[Aib]EGTFTSDYSI[Aib]LDKIAQRA[1Nal]VQWLIA[Aib]KGKKQEWKHQITQC([acetamide-mPEG 20 kDa])C([acetamide-mPEG 20 kDa])-NH2 | 0.207 nM
Y[Aib]EGTFTSDYSI[Aib]LDKIAQRAFVQWLIA[Aib]KGKKQEWKHQITQC([maleimide-mPEG 20 kDa])C([maleimide-mPEG 20 kDa])-NH2 [Aib2, Aib13, Aib29, Cys43(PEG20K), Cys44(PEG20K)-GIP (Example 3, PEGylated with mPEG-MAL)] | 0.244 nM
Y[Aib]EGTFTSDYSI[Aib]LDKIAQRA[1Nal]VQWLIA[Aib]KGKKQEWKHQITQ (not fully specified (C-terminus), Not PEGylated) [Example 1 (Aib2, Aib13, Nal22, Aib29 GIP analog, 42 residues)] | 0.005 nM
Y[Aib]EGTFTSDYSI[Aib]LDKIAQRAFVQWLIA[Aib]KGKKQEWKHQITQ (not fully specified (C-terminus), Not PEGylated) [Example 2 (Aib2, Aib13, Aib29 GIP analog, 42 residues)] | 0.023 nM
Y[Aib]EGTFTSDYSI[Aib]LDKIAQRA[1Nal]VQWLIA[Aib]KGKKQEWKHQITQC([maleimide-mPEG 20 kDa])C([maleimide-mPEG 20 kDa])-NH2 (also called Ex 4) [Aib2, Aib13, Nal22, Aib29, Cys43(PEG20K), Cys44(PEG20K)-GIP (Example 4, PEGylated with mPEG-MAL)] | 0.277 nM

molecular target: T2, human glucagon-like peptide 1 receptor (hGLP-1-R) (human, UniProt P43220 24-463); experiment: cell-based or functional assay

Binder | EC50 (relative), intracellular cAMP in hGLP-1-R-293HEK cells, HTRF
Y[Aib]EGTFTSDYSI[Aib]LDKIAQRA[1Nal]VQWLIA[Aib]KGKKQEWKHQITQC([acetamide-mPEG 20 kDa])C([acetamide-mPEG 20 kDa])-NH2 | 0.959 nM
Y[Aib]EGTFTSDYSI[Aib]LDKIAQRAFVQWLIA[Aib]KGKKQEWKHQITQC([maleimide-mPEG 20 kDa])C([maleimide-mPEG 20 kDa])-NH2 [Aib2, Aib13, Aib29, Cys43(PEG20K), Cys44(PEG20K)-GIP (Example 3, PEGylated with mPEG-MAL)] | 1.11 nM
Y[Aib]EGTFTSDYSI[Aib]LDKIAQRA[1Nal]VQWLIA[Aib]KGKKQEWKHQITQ (not fully specified (C-terminus), Not PEGylated) [Example 1 (Aib2, Aib13, Nal22, Aib29 GIP analog, 42 residues)] | 0.036 nM
Y[Aib]EGTFTSDYSI[Aib]LDKIAQRAFVQWLIA[Aib]KGKKQEWKHQITQ (not fully specified (C-terminus), Not PEGylated) [Example 2 (Aib2, Aib13, Aib29 GIP analog, 42 residues)] | 0.045 nM
Y[Aib]EGTFTSDYSI[Aib]LDKIAQRA[1Nal]VQWLIA[Aib]KGKKQEWKHQITQC([maleimide-mPEG 20 kDa])C([maleimide-mPEG 20 kDa])-NH2 (also called Ex 4) [Aib2, Aib13, Nal22, Aib29, Cys43(PEG20K), Cys44(PEG20K)-GIP (Example 4, PEGylated with mPEG-MAL)] | 0.844 nM

molecular target: T1, human glucose-dependent insulinotropic …; experiment: SPA competition binding assay

Binder | Ki
Y[Aib]EGTFTSDYSI[Aib]LDKIAQRA[1Nal]VQWLIA[Aib]KGKKQEWKHQITQC([acetamide-mPEG 20 kDa])C([acetamide-mPEG 20 kDa])-NH2 | < 100 nM
Y[Aib]EGTFTSDYSI[Aib]LDKIAQRAFVQWLIA[Aib]KGKKQEWKHQITQC([maleimide-mPEG 20 kDa])C([maleimide-mPEG 20 kDa])-NH2 [Aib2, Aib13, Aib29, Cys43(PEG20K), Cys44(PEG20K)-GIP (Example 3, PEGylated with mPEG-MAL)] | < 100 nM
Y[Aib]EGTFTSDYSI[Aib]LDKIAQRA[1Nal]VQWLIA[Aib]KGKKQEWKHQITQ (not fully specified (C-terminus), Not PEGylated) [Example 1 (Aib2, Aib13, Nal22, Aib29 GIP analog, 42 residues)] | < 100 nM
Y[Aib]EGTFTSDYSI[Aib]LDKIAQRAFVQWLIA[Aib]KGKKQEWKHQITQ (not fully specified (C-terminus), Not PEGylated) [Example 2 (Aib2, Aib13, Aib29 GIP analog, 42 residues)] | < 100 nM
Y[Aib]EGTFTSDYSI[Aib]LDKIAQRA[1Nal]VQWLIA[Aib]KGKKQEWKHQITQC([maleimide-mPEG 20 kDa])C([maleimide-mPEG 20 kDa])-NH2 (also called Ex 4) [Aib2, Aib13, Nal22, Aib29, Cys43(PEG20K), Cys44(PEG20K)-GIP (Example 4, PEGylated with mPEG-MAL)] | < 100 nM

molecular target: T2, human glucagon-like peptide 1 receptor …; experiment: SPA competition binding assay

Binder | Ki
Y[Aib]EGTFTSDYSI[Aib]LDKIAQRA[1Nal]VQWLIA[Aib]KGKKQEWKHQITQC([acetamide-mPEG 20 kDa])C([acetamide-mPEG 20 kDa])-NH2 | < 100 nM
Y[Aib]EGTFTSDYSI[Aib]LDKIAQRAFVQWLIA[Aib]KGKKQEWKHQITQC([maleimide-mPEG 20 kDa])C([maleimide-mPEG 20 kDa])-NH2 [Aib2, Aib13, Aib29, Cys43(PEG20K), Cys44(PEG20K)-GIP (Example 3, PEGylated with mPEG-MAL)] | < 100 nM
Y[Aib]EGTFTSDYSI[Aib]LDKIAQRA[1Nal]VQWLIA[Aib]KGKKQEWKHQITQ (not fully specified (C-terminus), Not PEGylated) [Example 1 (Aib2, Aib13, Nal22, Aib29 GIP analog, 42 residues)] | < 100 nM
Y[Aib]EGTFTSDYSI[Aib]LDKIAQRAFVQWLIA[Aib]KGKKQEWKHQITQ (not fully specified (C-terminus), Not PEGylated) [Example 2 (Aib2, Aib13, Aib29 GIP analog, 42 residues)] | < 100 nM
Y[Aib]EGTFTSDYSI[Aib]LDKIAQRA[1Nal]VQWLIA[Aib]KGKKQEWKHQITQC([maleimide-mPEG 20 kDa])C([maleimide-mPEG 20 kDa])-NH2 (also called Ex 4) [Aib2, Aib13, Nal22, Aib29, Cys43(PEG20K), Cys44(PEG20K)-GIP (Example 4, PEGylated with mPEG-MAL)] | < 100 nM

molecular target: T1, human glucose-dependent insulinotropic …; experiment: SPA competition, [125I]GIP displacement, hGIP-R CHO-S membranes
Method: The peptides analogs are serially diluted into binding buffer. […] Then, 90 μL membranes (4 μg/well), 50 μL [¹²⁵I] […] Plates are read with a MicroBeta® scintillation counter after 12 hours of settling time at room temperature.

Binder | Ki
Y[Aib]EGTFTSDYSI[Aib]LDKIAQRA[1Nal]VQWLIA[Aib]KGKKQEWKHQITQC([acetamide-mPEG 20 kDa])C([acetamide-mPEG 20 kDa])-NH2 | 9.22 nM
Y[Aib]EGTFTSDYSI[Aib]LDKIAQRAFVQWLIA[Aib]KGKKQEWKHQITQC([maleimide-mPEG 20 kDa])C([maleimide-mPEG 20 kDa])-NH2 [Aib2, Aib13, Aib29, Cys43(PEG20K), Cys44(PEG20K)-GIP (Example 3, PEGylated with mPEG-MAL)] | 9.79 nM
Y[Aib]EGTFTSDYSI[Aib]LDKIAQRA[1Nal]VQWLIA[Aib]KGKKQEWKHQITQ (not fully specified (C-terminus), Not PEGylated) [Example 1 (Aib2, Aib13, Nal22, Aib29 GIP analog, 42 residues)] | 0.044 nM
Y[Aib]EGTFTSDYSI[Aib]LDKIAQRAFVQWLIA[Aib]KGKKQEWKHQITQ (not fully specified (C-terminus), Not PEGylated) [Example 2 (Aib2, Aib13, Aib29 GIP analog, 42 residues)] | 0.023 nM
Y[Aib]EGTFTSDYSI[Aib]LDKIAQRA[1Nal]VQWLIA[Aib]KGKKQEWKHQITQC([maleimide-mPEG 20 kDa])C([maleimide-mPEG 20 kDa])-NH2 (also called Ex 4) [Aib2, Aib13, Nal22, Aib29, Cys43(PEG20K), Cys44(PEG20K)-GIP (Example 4, PEGylated with mPEG-MAL)] | 8.23 nM

molecular target: T2, human glucagon-like peptide 1 receptor …; experiment: SPA competition, I-125 GLP-1 displacement, hGLP-1-R 293HEK membranes
Method: The binding buffer contains 25 mM HEPES, pH 7.4, 2.5 mM CaCl₂, 1 mM MgCl₂, 0.1% fatty acid free BSA, 0.003% Tween20, and Roche Complete™ Inhibitors without EDTA. […] The peptide analog is dissolved in PBS and serially diluted in binding buffer. […] Plates are read with a PerkinElmer Life and Analytical Sciences Trilux MicroBeta® scintillation counter after 12 hours of settling time at room temperature.
The IC₅₀ concentration is converted to Ki using the Cheng-Prusoff equation.

Binder | Ki
Y[Aib]EGTFTSDYSI[Aib]LDKIAQRA[1Nal]VQWLIA[Aib]KGKKQEWKHQITQC([acetamide-mPEG 20 kDa])C([acetamide-mPEG 20 kDa])-NH2 | 6.2 nM
Y[Aib]EGTFTSDYSI[Aib]LDKIAQRAFVQWLIA[Aib]KGKKQEWKHQITQC([maleimide-mPEG 20 kDa])C([maleimide-mPEG 20 kDa])-NH2 [Aib2, Aib13, Aib29, Cys43(PEG20K), Cys44(PEG20K)-GIP (Example 3, PEGylated with mPEG-MAL)] | 9 nM
Y[Aib]EGTFTSDYSI[Aib]LDKIAQRA[1Nal]VQWLIA[Aib]KGKKQEWKHQITQ (not fully specified (C-terminus), Not PEGylated) [Example 1 (Aib2, Aib13, Nal22, Aib29 GIP analog, 42 residues)] | 0.096 nM
Y[Aib]EGTFTSDYSI[Aib]LDKIAQRAFVQWLIA[Aib]KGKKQEWKHQITQ (not fully specified (C-terminus), Not PEGylated) [Example 2 (Aib2, Aib13, Aib29 GIP analog, 42 residues)] | 0.059 nM
Y[Aib]EGTFTSDYSI[Aib]LDKIAQRA[1Nal]VQWLIA[Aib]KGKKQEWKHQITQC([maleimide-mPEG 20 kDa])C([maleimide-mPEG 20 kDa])-NH2 (also called Ex 4) [Aib2, Aib13, Nal22, Aib29, Cys43(PEG20K), Cys44(PEG20K)-GIP (Example 4, PEGylated with mPEG-MAL)] | 5.27 nM

molecular target: T3, human glucagon receptor (hGlucR) (human, UniProt P47871 26-477); experiment: ratio of Ki values from SPA competition binding assays (Gluc-R against GIP-R and GLP-1-R)
T3 construct: whole, on cells
T3 sequence (P47871 26-477): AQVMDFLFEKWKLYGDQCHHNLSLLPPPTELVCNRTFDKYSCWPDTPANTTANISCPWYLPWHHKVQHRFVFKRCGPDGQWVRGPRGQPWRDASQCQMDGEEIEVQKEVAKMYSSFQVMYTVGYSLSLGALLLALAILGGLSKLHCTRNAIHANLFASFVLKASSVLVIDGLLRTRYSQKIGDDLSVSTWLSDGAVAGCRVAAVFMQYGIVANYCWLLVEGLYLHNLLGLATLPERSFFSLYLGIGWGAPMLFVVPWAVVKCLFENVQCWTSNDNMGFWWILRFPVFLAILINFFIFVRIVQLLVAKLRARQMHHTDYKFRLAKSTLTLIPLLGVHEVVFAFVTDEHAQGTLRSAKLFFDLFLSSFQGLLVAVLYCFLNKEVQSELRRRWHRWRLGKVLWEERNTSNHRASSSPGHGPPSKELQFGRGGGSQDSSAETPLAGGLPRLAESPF

Binder | selectivity ratio versus Gluc-R
Y[Aib]EGTFTSDYSI[Aib]LDKIAQRA[1Nal]VQWLIA[Aib]KGKKQEWKHQITQC([acetamide-mPEG 20 kDa])C([acetamide-mPEG 20 kDa])-NH2 | ≥ 100 times
Y[Aib]EGTFTSDYSI[Aib]LDKIAQRAFVQWLIA[Aib]KGKKQEWKHQITQC([maleimide-mPEG 20 kDa])C([maleimide-mPEG 20 kDa])-NH2 [Aib2, Aib13, Aib29, Cys43(PEG20K), Cys44(PEG20K)-GIP (Example 3, PEGylated with mPEG-MAL)] | ≥ 100 times
Y[Aib]EGTFTSDYSI[Aib]LDKIAQRA[1Nal]VQWLIA[Aib]KGKKQEWKHQITQ (not fully specified (C-terminus), Not PEGylated) [Example 1 (Aib2, Aib13, Nal22, Aib29 GIP analog, 42 residues)] | ≥ 100 times
Y[Aib]EGTFTSDYSI[Aib]LDKIAQRAFVQWLIA[Aib]KGKKQEWKHQITQ (not fully specified (C-terminus), Not PEGylated) [Example 2 (Aib2, Aib13, Aib29 GIP analog, 42 residues)] | ≥ 100 times
Y[Aib]EGTFTSDYSI[Aib]LDKIAQRA[1Nal]VQWLIA[Aib]KGKKQEWKHQITQC([maleimide-mPEG 20 kDa])C([maleimide-mPEG 20 kDa])-NH2 (also called Ex 4) [Aib2, Aib13, Nal22, Aib29, Cys43(PEG20K), Cys44(PEG20K)-GIP (Example 4, PEGylated with mPEG-MAL)] | ≥ 100 times

— patent publication US20110237503A1 (Eli Lilly, published 2011)
